Assay: yeast display, Sf9 membrane polyspecificity reagent, FACS + sequencing; frameworks hold sequencing errors
Outline: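 Nanobodies came from a synthetic yeast display library in Saccharomyces cerevisiae BJ5465, induced with galactose for 36–48 hours and stained for 1 hour at 4 °C with 10% biotinylated, detergent-solubilized Sf9 membrane reagent. Cells were enriched on streptavidin microbeads and then FACS-sorted, with low and high (top ~1%) gates set on anti-HA fluorescence for expression and streptavidin fluorescence for reagent binding. Each polyreactivity label reflects the gate a clone came from. Genes were amplified by colony PCR, sequenced by MiSeq 2 × 250 and filtered by CDR length.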

## QVQLVESGGGLVQAGGSLRLSCAASGSTFVKYAMGWYRQAPGKERELVAAISGYSGRTYYADSVKGRFTISRDNAKNTVYLQMNSLKPEDTAVYYCAAEWDDGRSWYWYYLVGFEYWGQGTQVTVSS
  polyreactivity (PSR sort gate): high polyreactivity

## QVQLVESGGGLVQAGGSLRLSCAASGSTFVLYAMGWYRQAPGKERELVAAITKRGGNTYYADSVKGRFTISRDNAKNTVYLQMNSLKPEDTAVYYCAADHVRSPFDSWGQGTQVTVSS
  polyreactivity (PSR sort gate): low polyreactivity

## QVQLVESGGGLVQAGGSLRLSCAASGSTFVPNAMGWYRQAPGKEREFVAAIRVSCDNTYYADSVKGRFTISRDNAKNTDYLQMNSLKPEDTAVYYCAATGTVLGSVDYWGQGSQVTVSS
  polyreactivity (PSR sort gate): low polyreactivity

## QVQLVESGGGLVQAGGSLRLSCAASGSTFVPNAMGWYRQAPGKERELVAGISWSGGGTSYADSVKGRFTISRDNAKNTVYLQMNSLKPEDTAVYYCAVVGYEQNEYDYWGQGTQVTVSS
  polyreactivity (PSR sort gate): low polyreactivity

## QVQLVESGGGLVQAGGSLRLSCAASGSTFVPYAMGWYRQAPGKERELVASITYSGGSTSYADSVKGRVTISRDTAKNTVYLQMNSLKPEDTAVNYCAAVPWVVYSGYDYWGQGTQVTVSS
  polyreactivity (PSR sort gate): low polyreactivity

## QVQLVESGGGLVQAGGSLRLSCAASGSTFVPYTMGWYRQAPGKERELVAAISGSGGTDYADSVKGRFTISRDNAKNTVYLQMNSLKPEDTAVYYCATDGLDFWFIYDYWGQGTHVTVSS
  polyreactivity (PSR sort gate): low polyreactivity

## QVQLVESGGGLVQAGGSLRLSCAASGSTFVQYAMGWYRQAPGKERELVAAISGSGGRTYYADSVKGRFTLSRDNAKNTVYSHMNSLKPEDTAVYYCAAAYNTDFYYWGQGTQVTVSS
  polyreactivity (PSR sort gate): high polyreactivity

## QVQLVESGGGLVQAGGSLRLSCAASGSTFVRNAMGWYRQAPGKEREFVASISSTSGRTYYADSVKGRFTISRDNAKNTVYLQMNRLKPEDTAVYYCAADVPPKYRHRYTLYDYWGQGTQVTVSS
  polyreactivity (PSR sort gate): low polyreactivity

## QVQLVESGGGLVQAGGSLRLSCAASGSTFVRNAMGWYRQAPGKERELVAAISRSGGRTYYADSVKGRFTISRDNAKNTVYLQMNSLKPEDTAVYYCAKKRSKPISFDYWGQGTQVTVSS
  polyreactivity (PSR sort gate): high polyreactivity

## QVQLVESGGGLVQAGGSLRLSCAASGSTFVRNAMGWYRQAPGKERELVAAITSSGGSTYYADSVKGRFTISRDNAKNTVYLQMNSLKPEDTAVYYCAKRRYYRYDYWGQGTQVTVSS
  polyreactivity (PSR sort gate): low polyreactivity

## QVQLVESGGGLVQAGGSLRLSCAASGSTFVRNAMGWYRQAPGKERELVAAITSSGGSTYYADSVKGRFTISRDNAMKTVYLQMNSLKPEDTAVYYCNAELGSDTANYDYWGQGTQVTVSS
  polyreactivity (PSR sort gate): low polyreactivity

## QVQLVESGGGLVQAGGSLRLSCAASGSTFVRYAKGWYRQAPGKERELVAGISRRSGRTYYADSVKGRFTISRDNAKNTVYLQMNSLKPEDTAVYYCAARGIGGYEYWGQGTQVTVSS
  polyreactivity (PSR sort gate): high polyreactivity

## QVQLVESGGGLVQAGGSLRLSCAASGSTFVRYAMGWYRQAPGKERELVAAIDGGGTTKYADSVKGRFTISRDNAKNTVYLQMNSLKPEDTSVYYCAADQVWGYDSWGQGTQVTVSS
  polyreactivity (PSR sort gate): low polyreactivity

## QVQLVESGGGLVQAGGSLRLSCAASGSTFVRYAMGWYRQAPGKERELVAAISGSGGRTYYADSVKGRFTISRDNAKNTVYLQMYSLKPEDTAVYYCATSTAGGRQTVSQYRYYWGQGTQVTVSS
  polyreactivity (PSR sort gate): high polyreactivity

## QVQLVESGGGLVQAGGSLRLSCAASGSTFVRYAMGWYRQAPGKERELVAAISSGGSRTYYADSVKGRFTISRDNAKNTVYLQMNSLKPEDTAVYYCATVSTYYHYRRYDYWGQGTQVTVSS
  polyreactivity (PSR sort gate): high polyreactivity

## QVQLVESGGGLVQAGGSLRLSCAASGSTFVRYDMGWYRQAPGKERELVADISWSGVSTYADSVKGRFTISRDNAKNTVYLQMNSLKPEDTAVYYCAKDSDLYQRGGYYWGQGTQVTVSS
  polyreactivity (PSR sort gate): low polyreactivity

## QVQLVESGGGLVQAGGSLRLSCAASGSTFVSNAMGWYRPAPGKERELVASISQSGGGTDYADSVKGRFTISRDNAKNTVYLQMNSLKPEDTAVYYCAADRVPVQAPYDYWGQGTQVTVSS
  polyreactivity (PSR sort gate): high polyreactivity

## QVQLVESGGGLVQAGGSLRLSCAASGSTFVSNAMGWYRQAPGKERELVATITTSGGSTYYADSVKGRFTISRDNAKNTVYLQMNSLKPEDTAVYYCNADYDFNFIDWVYFLYDYWGQGTQVTVSS
  polyreactivity (PSR sort gate): low polyreactivity

## QVQLVESGGGLVQAGGSLRLSCAASGSTFVSNAMGWYSQAPGKERELVAAISSSDDSTYYADSVKGRFTLSRDKAKNTVYLQMISLKPEDTAVYYCAAESDSDQHDGDYWGQGTQVTVSS
  polyreactivity (PSR sort gate): low polyreactivity

## QVQLVESGGGLVQAGGSLRLSCAASGSTFVSYAMGWSRQAPGKERELVAAISISDSSTYYADSVKGRFTISRDNAKNTVFLQMNSLKPEDTAVYYCNRYDYWGQGTQVTVSS
  polyreactivity (PSR sort gate): low polyreactivity

## QVQLVESGGGLVQAGGSLRLSCAASGSTFVSYAMGWYRQAPGKEREFVAAITWSGGSTYYADSVKGRFTISRDNAKNTVYLQMNSLKPEDTAVYDCAAATYRQQWHYYWGQGTQVTVSS
  polyreactivity (PSR sort gate): high polyreactivity

## QVQLVESGGGLVQAGGSLRLSCAASGSTFVSYAMGWYRQAPGKERELVAAIRTTSGSTYYADSVKGRFTISRDNAKNTVYLQMNSLKPEDTAVYYCAAAGRGPSFRRYDYWGQGTQVTVSS
  polyreactivity (PSR sort gate): high polyreactivity

## QVQLVESGGGLVQAGGSLRLSCAASGSTFVSYAMGWYRQAPGKERELVAAISISDSSTYYADSVKGRFTISRDNAKKTVYLQMNSLKPEDTAVYYCNRYDYWGQGTQVTVSS
  polyreactivity (PSR sort gate): low polyreactivity

## QVQLVESGGGLVQAGGSLRLSCAASGSTFVSYAMGWYRQAPGKERELVAAISTSGGTTYYADSVKGRFTISRDNAKNTVYLQMNSLKPEDTAVYYCAAYDFKYKGYDYWGQGTQVTVSS
  polyreactivity (PSR sort gate): high polyreactivity

## QVQLVESGGGLVQAGGSLRLSCAASGSTFVSYAMGWYRQAPGKEREMVASISSGDSTYADSVKGRFTISRDNAKNTVYLQMNSLKREDTAVYYCNVGNEGSYGFPVTYDYWGQGSQVTVSS
  polyreactivity (PSR sort gate): low polyreactivity

## QVQLVESGGGLVQAGGSLRLSCAASGSTFVSYVMGWYRQAHGKERELVATSSGRAGRTYYADSVKGRFTISRDNAKNTVSLQMNSLKPEDTAVYYCNAGQWRYPGLYYYWGQATQVTVSS
  polyreactivity (PSR sort gate): high polyreactivity

## QVQLVESGGGLVQAGGSLRLSCAASGSTFVTNAMGWYRQAPGKERELVAAITSGAGTYYADSVKGRFTISRDNAKNTVYLQMNSLKPEDTAVYYCAARRYYSRGRYRFGYWGQGTQVTVSS
  polyreactivity (PSR sort gate): high polyreactivity

## QVQLVESGGGLVQAGGSLRLSCAASGSTFVTNDMGWYRQAPAKERELVAAISSGTSTNYADSVKGRFTISRDNAKNTVYLQMNSLKPEDTAVYYCAADSLKRYDYWGHGTQVTVSS
  polyreactivity (PSR sort gate): low polyreactivity

## QVQLVESGGGLVQAGGSLRLSCAASGSTFVTYAMGWYRQAPGKERELVAAIDSGGNTNYADSVKGRFTISRDNAKNTVYLQMNSLKPEDTAVYYCAVRPYELNRLDDQPGGDDYWGQGTQVTVSS
  polyreactivity (PSR sort gate): low polyreactivity

## QVQLVESGGGLVQAGGSLRLSCAASGSTFVTYAMGWYRQAPGKERELVATITTSGGSTYYADSVKGRFTISRDNAKNTVYLQMNSLKPEDTAVYYCAADYYSNYSRFDYWGQGTQVTVSS
  polyreactivity (PSR sort gate): low polyreactivity

## QVQLVESGGGLVQAGGSLRLSCAASGSTFVVNAMGWYRQAPGKERELVAAIRGSAGSTYYADSVKGRFTISRDNAKNTVYLQMNSLKPEDTAVYYCAAYYRRYKSKYDYWGQGTQVTVSS
  polyreactivity (PSR sort gate): high polyreactivity

## QVQLVESGGGLVQAGGSLRLSCAASGSTFVVNAMGWYRQAPGKERELVAAIRIIGGSTYYADSVKGRFTISRDNAKNTVYLQMKSLKPEDTAVYYCVYSGYFPHQSKMDYWGQGTQVTVSS
  polyreactivity (PSR sort gate): low polyreactivity

## QVQLVESGGGLVQAGGSLRLSCAASGSTFVVNAMGWYRQAPGKERELVAAITQSGGSTFYADSVKGRFTISRDNAKNTVYLQINSLKPEDTAVYYWGQCTQVTVSS
  polyreactivity (PSR sort gate): low polyreactivity

## QVQLVESGGGLVQAGGSLRLSCAASGSTFVVYAMGWSRQAPGKERELVAAISTSDTSTYYADSVKGRFTISRDNAKNTVYLQMNSLKPEDTAVYYCAADGTYVYINEYEYWGQGTQVTVSS
  polyreactivity (PSR sort gate): low polyreactivity

## QVQLVESGGGLVQAGGSLRLSCAASGSTFVWNAMGWYRQAPGQERELVAAITWSGGSTYYADSVKGRFTISRDNAKNTVYLQMNSLIPEDTAVYYGNAGPVVRRWDAVGYDYWGQGTQVTVSS
  polyreactivity (PSR sort gate): low polyreactivity

## QVQLVESGGGLVQAGGSLRLSCAASGSTFVYNAMGWYRQAPGKEREFVAVINWSGGRTYADSVKGRFTISRDNAKNTVYLQMNSLKPEDTAVYYCNARRRTGYRPAMDYWGQGTQVTVSS
  polyreactivity (PSR sort gate): high polyreactivity

## QVQLVESGGGLVQAGGSLRLSCAASGSTFVYNAMGWYRQAPGKERELVAAIRTTGTGTYYADSVKGRFTISRDNAKNTVYLQMNSLKPEDTAVYYCATDYNYWKLDFGYWGQGTQVTVSS
  polyreactivity (PSR sort gate): high polyreactivity

## QVQLVESGGGLVQAGGSLRLSCAASGSTFVYNAMGWYRQAPGKERELVAAITNSGSTYYADSVKGRFTISRDNAKNTVYLQMNSLKPEDTAVYDCAARSRVYWARSGYWGQGTQVTVAS
  polyreactivity (PSR sort gate): low polyreactivity

## QVQLVESGGGLVQAGGSLRLSCAASGSTFVYYAMGSYIQAPGKERELVAAISSGGNTKYADSVKGRFTISRDNAMNTVYLHMNRLKPEDTAVYYCARETQSYFDHDYWGQGTQVTVSS
  polyreactivity (PSR sort gate): low polyreactivity

## QVQLVESGGGLVQAGGSLRLSCAASGSTFVYYAMGWYRKAPGKERELVAAITSSGGSTHYADSVKGRFTISRDNAKNTVYLQMNSLKPEDTAVYYCAVGALGVYGHYGYWGQGTQVTVSS
  polyreactivity (PSR sort gate): low polyreactivity

## QVQLVESGGGLVQAGGSLRLSCAASGSTFVYYAMGWYRQAPGKEREFVAAINGGGRTNYADSVKGRFTISRDNAKNTVYLQMNSLKPEDTAVYDCAADGLSNVRQMDYWGQGTQVTVSS
  polyreactivity (PSR sort gate): low polyreactivity

## QVQLVESGGGLVQAGGSLRLSCAASGSTFVYYAMGWYRQAPGKEREFVAGISRSGGSTYYADSVKGRFTISRDNAKNTVYLQMNSLIPEDTAVYYCNARGGLPKYGYWGQGTQVTVSS
  polyreactivity (PSR sort gate): high polyreactivity

## QVQLVESGGGLVQAGGSLRLSCAASGSTFVYYAMGWYRQAPGKERELVAAIRYSGASTYYADSVKGRFTISRDNAKNTVYLQMNSLKPEDTAVYYCAASSRTFGYKYYYWGQGTQVTVSS
  polyreactivity (PSR sort gate): high polyreactivity

— the nanobody polyreactivity screen of Harvey et al. (2022)
